The text below walks through data of article PMC12210968.

A word on the Kd: it is the free concentration of one partner at which half of the binding sites on the other are occupied at equilibrium, for simple one-to-one binding. Read a high Kd as a looser complex. One may read the koff as the rate constant with which the complex falls apart. Read a low koff as a long-lived complex. The term kon denotes the second-order rate constant of association.

The target of the assay is Human plasminogen (PLG) protein (human) (UniProt P00747). Put plainly: SPR; BIAcore system; PLG and EV-A71 6356 viral particles; the methods tell one set-up (PLG coated, virus diluted) for EnSpire or BIAcore. (In general: SPR reads the build-up and loss of mass on a sensor chip optically.)

With “Enterovirus A71 (EV-A71) viral particles, strain 6356 (human strain, C2 genotype) (complex)”, the Kd is 1.96 nM, the koff is 5.63e-05 s⁻¹ and the kon came out at 28800 M⁻¹ s⁻¹.
